According to article PMC3393751:

Biological target: cytochrome b558 (human (endogenous in neutrophils)) (UniProt P04839)
Sequence of UniProt P04839 (P04839 whole entry, chain 1 of 2): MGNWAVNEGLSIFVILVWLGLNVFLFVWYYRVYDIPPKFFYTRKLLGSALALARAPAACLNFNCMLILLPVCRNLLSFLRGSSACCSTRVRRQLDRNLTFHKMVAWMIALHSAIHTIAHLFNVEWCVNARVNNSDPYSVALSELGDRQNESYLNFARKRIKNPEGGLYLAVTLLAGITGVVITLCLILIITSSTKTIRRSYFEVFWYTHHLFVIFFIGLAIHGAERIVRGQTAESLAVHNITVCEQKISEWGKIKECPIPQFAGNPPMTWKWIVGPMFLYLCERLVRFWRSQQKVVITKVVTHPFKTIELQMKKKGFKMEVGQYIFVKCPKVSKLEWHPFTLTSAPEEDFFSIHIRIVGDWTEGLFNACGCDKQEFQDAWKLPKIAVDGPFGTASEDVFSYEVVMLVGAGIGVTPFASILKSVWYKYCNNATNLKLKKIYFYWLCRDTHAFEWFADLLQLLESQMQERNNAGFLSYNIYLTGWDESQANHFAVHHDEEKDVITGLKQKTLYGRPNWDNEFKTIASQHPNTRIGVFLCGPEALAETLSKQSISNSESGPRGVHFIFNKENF
Sequence of UniProt P04839 (P13498 whole entry, chain 2 of 2, further chain): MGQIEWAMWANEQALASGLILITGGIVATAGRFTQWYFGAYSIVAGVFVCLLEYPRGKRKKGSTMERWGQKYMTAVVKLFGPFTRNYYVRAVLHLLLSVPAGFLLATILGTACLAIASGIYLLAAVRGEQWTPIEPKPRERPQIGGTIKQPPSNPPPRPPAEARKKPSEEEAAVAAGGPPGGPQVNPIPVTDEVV

## rS100A9-A8 chimera (full length) (from UniProt P05109 1-93)
  constitutive NADPH oxidase turnover (without arachidonic acid) of cytochrome b558 washed on the heparin matrix with the calcium loaded chimera instead of cytosol (control without washing 3.7 s^-1): 17 s⁻¹
